Numbering of substitutions follows the chain as printed.
Key:
NPC1 models = conditions: cited from earlier work
NPC1 = conditions: administered directly to the CNS; cited from earlier work
[1] = system: mouse model of tauopathy with Parkinsonism; conditions: trehalose consumption; cited from earlier work
[2] = system: cellular model for Huntington's disease; conditions: in vitro treatment; cited from earlier work
[3] = DMPC liposome clearance by lipid-free apolipoproteins (A325); assay type: biochemical; conditions: lipid-free apolipoprotein, protein:lipid 1:75, A325 over 90 minutes
Experimental: To assess the ability of lipid-free apolipoproteins to remodel DMPC liposomes, aliquots of purified polypeptide were allowed to thaw at 2-8° C. Aqueous 0.5 M tris(2-carboxyethyl)phosphine (TCEP) solution was then added to the polypeptide solution (1.5 μL per 200 μg polypeptide) to reduce any disulfide bonds that formed during storage. After incubation for >30 minutes at 2-8° C., the mixture was buffer exchanged into PBS (2 mM KH2PO4, 10 mM Na2HPO4, 140 mM NaCl, 3 mM KCl, pH 7.4) using a spin desalting column (ThermoFisher) following the manufacturer's instructions. After buffer exchange, the concentration of the polypeptide was determined by measuring the sample's absorbance at 280 nm (A280). In parallel, a mixture of DMPC (1,2-dimyristoyl-sn-glycero-3-phosphocholine) in detergent-free lipid buffer (20 mM Tris HCl, 100 mM NaCl, pH 7.4) was prepared from neat DMPC powder and adjusted to about 10 mM.
The polypeptide and DMPC solutions were combined in technical duplicate or triplicate in a UV-transparent 96-well plate (Corning) such that the molar ratio of protein:lipid was 1:75. The absorbance of the wells at 325 nm was measured every minute for 90 minutes.
Polypeptides PP124 (SEQ ID NO: 876), PP125 (SEQ ID NO: 877), PP126 (SEQ ID NO: 878), PP127 (SEQ ID NO: 879), PP128 (SEQ ID NO: 880), and PP129 (SEQ ID NO: 881) were expressed, harvested, and purified using the methods described herein (see, e.g., Example 1). The ability of these novel apolipoprotein variants to interact with and remodel DMPC liposomes was assessed to serve as a simplified proxy of the disc assembly process. The rate at which apolipoproteins achieve such remodeling is related to the facility with which they form the lipoprotein systems described in the present invention.

[4] = target: human low-density lipoprotein receptor (LDLR) protein (human, UniProt P01130 22-788, limits assumed); assay: SPR (Biacore 4000), human LDLR captured on a Protein A chip, lipoprotein as analyte, 1:1 model fit
Experimental: (§1) A surface plasmon resonance (SPR) method was developed to assess the binding response between the lipoprotein samples and the low-density lipoprotein receptor (LDLR). This interaction is relevant to the discs because the LDLR/APOE pathway plays a pivotal role in cholesterol homeostasis and lipid metabolism. Experiments were performed on a Biacore 4000 with human LDLR protein captured on a Protein A chip. For the binding studies, lipoprotein samples were diluted and tested in a 3-fold dilution series. Samples were injected for 2-3 minutes at 30 μL/min and the dissociation phase was monitored for 5-10 minutes. Response data were processed by subtracting the data from a reference surface (i.e., without receptor captured) and a buffer injection. The processed data were globally fit to a 1:1 interaction model to extract estimates of the binding constants.
Target sequence in this assay (P01130 22-788 limits assumed): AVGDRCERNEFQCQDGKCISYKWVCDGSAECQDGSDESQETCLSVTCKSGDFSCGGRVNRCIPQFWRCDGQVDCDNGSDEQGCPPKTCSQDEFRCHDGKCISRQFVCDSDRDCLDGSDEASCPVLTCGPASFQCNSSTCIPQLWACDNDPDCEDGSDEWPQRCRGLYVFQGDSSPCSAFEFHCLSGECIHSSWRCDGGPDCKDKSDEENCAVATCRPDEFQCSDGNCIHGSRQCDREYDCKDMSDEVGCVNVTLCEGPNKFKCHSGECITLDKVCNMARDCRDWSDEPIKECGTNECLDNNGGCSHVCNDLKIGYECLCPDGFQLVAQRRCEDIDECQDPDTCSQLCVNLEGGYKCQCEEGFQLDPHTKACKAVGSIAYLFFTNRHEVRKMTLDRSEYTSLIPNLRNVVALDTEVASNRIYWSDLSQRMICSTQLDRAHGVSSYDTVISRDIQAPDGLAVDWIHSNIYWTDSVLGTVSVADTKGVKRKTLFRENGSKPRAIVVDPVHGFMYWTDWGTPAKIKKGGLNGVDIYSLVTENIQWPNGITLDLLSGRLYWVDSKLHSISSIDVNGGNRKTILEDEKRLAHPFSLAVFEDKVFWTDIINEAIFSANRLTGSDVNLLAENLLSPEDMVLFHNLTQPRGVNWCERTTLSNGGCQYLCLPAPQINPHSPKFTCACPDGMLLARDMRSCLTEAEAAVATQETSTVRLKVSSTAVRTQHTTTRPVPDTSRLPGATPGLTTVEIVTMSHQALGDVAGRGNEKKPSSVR

[5] = target: T1, human low-density lipoprotein receptor (LDLR) protein (human, UniProt P01130 22-788, limits assumed); assay: SPR (Biacore 4000), human LDLR captured on Protein A chip
T1 construct: The receptor was captured on a Protein A chip in the SPR assay
Experimental: as §1
T1 sequence (P01130 22-788 limits assumed): as above

[6] = system: experimental models of stroke, global brain ischemia, prion diseases, AD, PD, HD, ALS; conditions: intracerebral administration; cited from earlier work

Molecule: 2-hydroxypropyl-β-cyclodextrins [HPβCD]
- crossing of the blood-brain barrier (NPC1 models; mouse, in vivo): does not cross the blood-brain barrier in significant amounts
- CNS manifestations (NPC1 models; subcutaneously or intraperitoneally, very high doses): can moderately impact CNS manifestations
- efficacy (NPC1): far greater HPβCD efficacy at much lower doses

Molecule: OC[C@H]1O[C@H](O[C@H]2O[C@H](CO)[C@@H](O)[C@H](O)[C@H]2O)[C@H](O)[C@@H](O)[C@@H]1O [trehalose]
- anxiety-related behavior [1]: Reduced anxiety-related behavior
- motor function [1]: improved motor function
- tau pathology [1]: decreased tau pathology
- polyglutamine aggregates and cell survival [2]: decreased polyglutamine aggregates and/or improved cell survival

Molecule: PP1: natural human APOE isoform APOE2; SEQ ID NO: 267, 268 in b698
- Rate of DMPC clearance Ka [3]: 0.0032 s⁻¹

Molecule: PP2: natural human APOE isoform APOE 3; SEQ ID NO: 268, 267 in b698
- Rate of DMPC clearance Ka [3]: 0.0145 s⁻¹

B1: LPS1: lipoprotein system of PP9 and POPC, apolipoprotein:lipid 1:105 (other)
chain: KVEQAVETEPEPELRQQTEWQSGQRWELALGRFWDYLRWVQTLSEQVQEELLSSQVTQELRALMDETMKELKAYKSELEEQLTPVAEETRARLSKELQAAQARLGADMEDVCGRLVQYRGEVQAMLGQSTEELRVRLASHLRKLRKRLLRDADDLQKRLAVYQAGAREGAERGLSAIRERLGPLVEQGRVRAATVGSLAGQPLQERAQAWGERLRARMEEMGSRTRDRLDEVKEQVAAKLEEQAQQIRLQAEAFQARLKPLVEDMQRQWAGLVEKVQAAVGTSAAPVPSDNH
notes: Discoidal lipoprotein particle with POPC; Engineered truncation variant of APOE3; also called PP9/POPC
- Kd [4]: ~0.33 nM

B2: LPS1 lipoprotein system (PP9 with POPC, polypeptide:lipid 1:105) (other)
chain: B1 chain
notes: Discoidal lipoprotein particle with POPC at 1:105 mol/mol; also called PP9/POPC
- fold difference in KD compared to POPC lipoproteins with PP2 or PP28 [5]: ≤ 5 fold

B3: PP125: novel truncated apolipoprotein variant SEQ ID NO: 877 (protein)
chain: B1 chain with R136S, V236E
- Rate of DMPC clearance Ka [3]: 0.0247 s⁻¹

B4: PP124: novel truncated apolipoprotein variant SEQ ID NO: 876 (protein)
chain: B1 chain with V236E
- Rate of DMPC clearance Ka [3]: 0.0221 s⁻¹

B5: LPS3: lipoprotein system of PP11 and POPC, apolipoprotein:lipid 1:90 (other)
chain: KVEQAVETEPEPELRQQTEWQSGQRWELALGRFWDYLRWVQTLSEQVQEELLSSQVTQELRALMDETMKELKAYKSELEEQLTPVAEETRARLSKELQAAQARLGADMEDVCGRLVQYRGEVQAMLGQSTEELRVRLASHLRKLRKRLLRDADDLQKRLAVYQAGAREGAERGLSAIRERLGDRLDEVKEQVAAKLEEQAQQIRLQAEAFQARLKPLVEDMQRQWAGLVEKVQAAVGTSAAPVPSDNH
notes: Discoidal lipoprotein particle with POPC; Engineered truncation variant of APOE3; also called PP11/POPC
- Kd [4]: ~0.125 nM

B6: PP129: novel truncated apolipoprotein variant SEQ ID NO: 881 (protein)
chain: B5 chain with R136S, V192E, L228Q
- Rate of DMPC clearance Ka [3]: 0.0068 s⁻¹

B7: PP128: novel truncated apolipoprotein variant SEQ ID NO: 880 (protein)
chain: B5 chain with R136S, V192E
- Rate of DMPC clearance Ka [3]: 0.0149 s⁻¹

B8: PP126: novel truncated apolipoprotein variant SEQ ID NO: 878 (protein)
chain: B5 chain
- Rate of DMPC clearance Ka [3]: 0.0383 s⁻¹

B9: PP127: novel truncated apolipoprotein variant SEQ ID NO: 879 (protein)
chain: B5 chain with V192E
- Rate of DMPC clearance Ka [3]: 0.0058 s⁻¹

B10: LPS3 lipoprotein system (PP11 with POPC, polypeptide:lipid 1:90) (other)
chain: B5 chain
notes: Discoidal lipoprotein particle with POPC at 1:90 mol/mol; also called PP11/POPC
- fold difference in KD compared to POPC lipoproteins with PP2 or PP28 [5]: ≤ 5 fold

B11: LPS2: lipoprotein system of PP10 and POPC, apolipoprotein:lipid 1:100 (other)
chain: KVEQAVETEPEPELRQQTEWQSGQRWELALGRFWDYLRWVQTLSEQVQEELLSSQVTQELRALMDETMKELKAYKSELEEQLTPVAEETRARLSKELQAAQARLGADMEDVCGRLVQYRGEVQAMLGQSTEELRVRLASHLRKLRKRLLRDADDLQKRLAVYQAGAREGAERGLSAIRERLGDRLDEVKEQVAEVRAKLEEQAQQIRLQAEAFQARLKSWFEPLVEDMQRQWAGLVEKVQAAVGTSAAPVPSDNH
notes: Discoidal lipoprotein particle with POPC; Engineered truncation variant of APOE3; also called PP10/POPC
- Kd [4]: ~0.385 nM

B12: LPS2 lipoprotein system (PP10 with POPC, polypeptide:lipid 1:100) (other)
chain: B11 chain
notes: Discoidal lipoprotein particle with POPC at 1:100 mol/mol; also called PP10/POPC
- fold difference in KD compared to POPC lipoproteins with PP2 or PP28 [5]: ≤ 5 fold

B13: BDNF: brain-derived neurotrophic factor, a neurotherapeutic growth factor (protein, UniProt P23560 19-247, looked up)
Neurotrophic factor BDNF …: APMKEANIRGQGGLAYPGVRTHGTLESVNGPKAGSRGLTSLADTFEHVIEELLDEDQKVRPNEENNKDADLYTSRVMLSSQVPLEPPLLFLLEEYKNYLDAANMSMRVRRHSDPARRGELSVCDSISEWVTAADKKTAVDMSGGTVTVLEKVPVSKGQLKQYFYETKCNPMGYTKEGCRGIDKRHWNSQCRTTQSYVRALTMDSKKRIGWRFIRIDTSCVCTLTIKRGR
- neuroprotection [6]: neuroprotective
